Test results taken from publication PMC8263732, “M1BP cooperates with CP190 to activate transcription at TAD borders and promote chromatin insulator activity” (Nature Communications, 2021).

T1: Suppressor of Hairy wing [Su(Hw)] (Drosophila (endogenous in 0-24 h Oregon …, UniProt P08970 1-941))
T1 construct: endogenous protein in embryonic nuclear extract; source: endogenous, nuclear extract of 0-24 h Drosophila embryos
T1 sequence (looked up): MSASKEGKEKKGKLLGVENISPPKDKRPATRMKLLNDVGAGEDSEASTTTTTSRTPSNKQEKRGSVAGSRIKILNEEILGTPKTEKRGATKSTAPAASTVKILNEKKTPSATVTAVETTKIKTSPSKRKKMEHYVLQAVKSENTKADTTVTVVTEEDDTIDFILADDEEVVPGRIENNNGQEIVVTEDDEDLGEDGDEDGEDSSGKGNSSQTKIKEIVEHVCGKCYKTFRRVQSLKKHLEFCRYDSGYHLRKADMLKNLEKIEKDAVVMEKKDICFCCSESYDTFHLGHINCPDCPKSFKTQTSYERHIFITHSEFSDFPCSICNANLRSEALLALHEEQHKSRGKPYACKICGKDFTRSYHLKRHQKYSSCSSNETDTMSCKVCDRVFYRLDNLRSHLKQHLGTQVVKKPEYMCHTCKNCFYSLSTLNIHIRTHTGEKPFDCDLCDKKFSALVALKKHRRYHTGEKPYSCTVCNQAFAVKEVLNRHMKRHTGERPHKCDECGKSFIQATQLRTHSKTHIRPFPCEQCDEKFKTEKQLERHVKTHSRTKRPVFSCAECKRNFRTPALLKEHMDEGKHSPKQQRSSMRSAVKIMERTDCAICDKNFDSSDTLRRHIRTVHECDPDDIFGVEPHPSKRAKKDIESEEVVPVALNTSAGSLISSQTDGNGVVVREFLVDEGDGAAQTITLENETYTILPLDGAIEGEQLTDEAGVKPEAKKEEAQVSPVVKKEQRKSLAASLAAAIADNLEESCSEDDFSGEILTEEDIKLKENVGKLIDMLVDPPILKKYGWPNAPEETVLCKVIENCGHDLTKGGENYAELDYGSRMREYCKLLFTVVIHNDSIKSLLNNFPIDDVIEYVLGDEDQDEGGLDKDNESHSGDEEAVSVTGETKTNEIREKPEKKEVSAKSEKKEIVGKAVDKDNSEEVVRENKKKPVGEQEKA

B1: Centrosomal protein 190 (CP190) (natural protein, UniProt Q24478 1-1096, looked up)
chain: MGEVKSVKVDNWGVFFLQKLQNFFNKTDYCDLTLQFRDNSQLKVHRLVLSACTDYFNVLEQTCEIVDDALIMPNEFQADVVVPIVNFMYTGTLEFELKMYGKLLRTAKEMNMTVLLKLLEAHRRTMENVNRQQRPPSPKGIRRRTVGQPSSGLPQQRVLGPSPQSRNVATPIAQRANTQRGSTGNTMSRTSGGSNRSPYGDSSNVKQEPTSPFEQLRKGYNNNKRPAQTSLLSPPSKKPSLEEVKEFAEQQRMRKQIAAEYGDNDPEYDGGMLYDDVHAGDDDDDDMPPQPSTSKQQSPQGTQTQLEHGSTTIILKQDSPSQTPTIIVKDSSNAKLNHTKIIAEVLRQYPHIVKGHKNIKLKIMPNTPAAPTEKSAPATVKPPANQSSATTSPHKKLHVSFKADKSTPLITAQQKAASSQQKSGTSQTTGNQGTGANPPANTAAAQKRRIDSKTMHALIAQGAENTTGPWLCLRCGVNGRPISIPSYRGFRRHLINTHKETIDPALCEHCGWRSVNNRELHFHMYMEHQTKSLLYTFAECALCNQSYRTKGELEAHINEVHTDDNKQQCIYCNKVFEQELQLYRHMKSYHKEQALEDGIIDETDEEFLGSQDEEEEAEGDEEQEPEQTGKVRILSDISLPATSAITVQQAQQEQLQEEDVEQVQQEVKFVGADGNEVELTDEQRKEILSQLNQQQAGATAGGVVMVLSEPEAEHVKQETDEKSLAGTEEEYDDSQIYSELGAADSVESAKKNIADESKESIDNLEWAENLIAESEEQSNKEPKSDKPRDDISEKLKELTGDWTEDENDDDVDDKPATAELASELANKDPEPTVHEEEDDIDLALQSLHKGPEEATEEKASEESVTSADDAVDAVPNINSQPEKMDVDSEAADEKASKAEVQIKKEAELENDQEEFIKEDSPIPHSDSVAELREAVTASEGEDDVHLEADNIRKELLDELIAEAEKPDQEKDIVQSEENATTEALDRSVTDEDDLVPPTQVSTEQMEIDEPAAEKAAENNEDTRTADEKEAVEDKPNQTQDVTTAEKPTLESAKAGDEATSGEAASVDKVKSLISEWGDDDEDEDENGVSAAAKEEL
notes: Centrosomal protein 190 (CP190), universal insulator protein of Drosophila; endogenous protein in embryonic nuclear extract; source: endogenous, nuclear extract of 0-24 h Drosophila embryos
B2: Modifier of mdg4 [Mod(mdg4)] 67.2 kDa isoform [Mod(mdg4)67.2] (natural protein, UniProt Q86B87 1-610, looked up)
chain: MADDEQFSLCWNNFNTNLSAGFHESLCRGDLVDVSLAAEGQIVKAHRLVLSVCSPFFRKMFTQMPSNTHAIVFLNNVSHSALKDLIQFMYCGEVNVKQDALPAFISTAESLQIKGLTDNDPAPQPPQESSPPPAAPHVQQQQIPAQRVQRQQPRASARYKIETVDDGLGDEKQSTTQIVIQTTAAPQATIVQQQQPQQAAQQIQSQQLQTGTTTTATLVSTNKRSAQRSSLTPASSSAGVKRSKTSTSANVMDPLDSTTETGATTTAQLVPQQITVQTSVVSAAEAKLHQQSPQQVRQEEAEYIDLPMELPTKSEPDYSEDHGDAAGDAEGTYVEDDTYGDMRYDDSYFTENEDAGNQTAANTSGGGVTATTSKAVVKQQSQNYSESSFVDTSGDQGNTEAQAATSASATKIPPRKRGRPKTKVEDQTPKPKLLEKLQAATLNEEASEPAVYASTTKGGVKLIFNGHLFKFSFRKADYSVFQCCYREHGEECKVRVVCDQKRVFPYEGEHVHFMQASDKSCLPSQFMPGESGVISSLSPSKELLMKNTTKLEEADDKEDEDFEEFEIQEIDEIELDEPEKTPAKEEEVDPNDFREKIKRRLQKALQNKKK
notes: Modifier of mdg4, the 67.2 kDa isoform, Drosophila; The gene has many isoforms; the 67.2 kDa isoform is meant; to be checked; source: endogenous, nuclear extract of 0-24 h Drosophila embryos
B3: Motif 1 Binding Protein (M1BP) (natural protein, UniProt Q9VHM3 1-418, looked up)
chain: MSKSALKHLKSTCRVCAKYASNKRSPKLFERSNTKMIDNIEALTGLRLENYGCLPDQICECCSMELASAVKLRERCIAAQRELLLGLTEEQRQGISAFYRAAVMGEDIVQTVKTPDDDEVYATYQEIVLEEPKEEIDDTKVEYDNTYYEVAEGHAGEDDAASLIEEADYDSIMAEDEEQQQTLELDEDTELIVGDVNDAYVYDSDDEVAVLDNVLDDEYEHENIVVKKCSLPPKPKVRSDDARRRGTGGVYICEQCGNHIKGRMAFELHCRRHRGDKQFGCELCQSRFCTTSELKRHMRKHTGERPFACKYCGRCFTDYTTRVKHERTHTNERPYVCGTCGKAFTTGYILKNHMLIHSGERAYRCELCDKSFMLPTHLSTHFRSGVHKRHLEKAEMKQVLEQEQKRELKEEEEDSLHI
notes: endogenous protein in embryonic nuclear extract; source: endogenous, nuclear extract of 0-24 h Drosophila embryos

Assays:
Assay in all cases: co-IP; 500 ug nuclear extract of 0-24 h Drosophila embryos incubated overnight at 4 C with antiserum (anti-Su(Hw), anti-CP190, anti-Mod(mdg4)67.2 or anti-M1BP; normal serum as control) cross-linked to Protein A or G Sepharose; washed twice with HBSMT and once with HBSM; western blotting; efficiency as percent of total input protein
Settings in all cases: partners not purified
[1] = target: T1, Suppressor of Hairy wing [Su(Hw)]
[2] = target: B3
[3] = target: B2
[4] = target: B1

percent of total protein immunoprecipitated with anti-Su(Hw) [1] [%]	percent of total protein immunoprecipitated with anti-M1BP [2] [%]	percent of total protein immunoprecipitated with anti-Mod(mdg4)67.2 [3] [%]	percent of total protein immunoprecipitated with anti-CP190 [4] [%]	Binder
5.2	3.8	11		B1
1.9	1.4		8.2	B2
5.3		3	3.8	B3
